Measured values: publication PMC4250932

System: NC(=O)C1=CN([C@@H]2O[C@H](COP(=O)(O)OP(=O)(O)OC[C@H]3O[C@@H](n4cnc5c(N)ncnc54)[C@H](OP(=O)(O)O)[C@@H]3O)[C@@H](O)[C@H]2O)C=CC1
Experiment: purified protein
Conditions: varied: cofactor

With “RmlD (dTDP-6-deoxy-L-lyxo-4-hexulose reductase) (Mycobacterium tuberculosis H37Rv)” the Km was 12.5 µM.
